Experimental data reported in US20240317871A1 (IMMUNOMIC THERAPEUTICS, published 2024).
Positions count from the first letter of the chain named.

Legend:
human HVEM = target: T1, human HVEM (human, UniProt Q92956 39-202, limits assumed); assay: ELISA
T1 sequence (looked up): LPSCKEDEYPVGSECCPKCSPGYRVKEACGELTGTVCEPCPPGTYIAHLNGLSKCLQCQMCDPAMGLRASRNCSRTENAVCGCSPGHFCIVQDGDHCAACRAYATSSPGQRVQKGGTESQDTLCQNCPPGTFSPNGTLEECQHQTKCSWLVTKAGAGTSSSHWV

cynomolgus monkey HVEM = target: T2, cynomolgus monkey HVEM (cynomolgus monkey, UniProt A0A2K5W0R1 39-203); assay: ELISA
T2 sequence: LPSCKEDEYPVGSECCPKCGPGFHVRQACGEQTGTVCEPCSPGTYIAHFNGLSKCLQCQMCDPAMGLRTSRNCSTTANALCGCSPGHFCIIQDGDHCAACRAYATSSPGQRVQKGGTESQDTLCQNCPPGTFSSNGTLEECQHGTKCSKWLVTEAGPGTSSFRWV

murine HVEM = target: T3, murine HVEM (murine, UniProt Q80WM9 39-206, limits assumed); assay: ELISA
T3 construct: also called Mouse
T3 sequence (looked up): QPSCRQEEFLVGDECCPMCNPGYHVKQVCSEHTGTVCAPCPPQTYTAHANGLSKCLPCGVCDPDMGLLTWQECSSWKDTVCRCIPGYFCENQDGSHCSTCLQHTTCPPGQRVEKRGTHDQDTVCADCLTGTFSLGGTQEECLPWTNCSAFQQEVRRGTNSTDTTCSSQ

His-tagged human HVEM = target: T4, His-tagged human HVEM (human, UniProt Q92956 39-202, limits assumed); assay: BLI OctetRed96, mAb captured, 200 nM His-HVEM
T4 construct: Analyte of the BLI assay, 200 nM in PBS; not shown: His tag
T4 sequence (looked up): T1 sequence (looked up)
Protocol: Binding of antibodies to HVEM may also be determined by bio-layer interferometry (BLI) on an OctetRed96@ system (Sartorius). (See http://www.fortebio.com/bli_technology.html for general description of a BLI assay.) For this experiment, murine anti-human HVEM antibodies were captured from culture supernatant using anti-mouse IgG Fc capture and immobilized to dip and read biosensors. Sensors were then dipped into a solution of 200 nM His-tagged human HVEM in phosphate-buffered saline (PBS). Probes were dipped into PBS assay buffer and the dissociation rate (koff) was measured. The association rate (kₒₙ) and affinity (KD) were determined by curve fitting analysis.

B1: Ab_022 (H5S14-23A21A) (antibody, V domains shown)
VH: LVKTGASVKISCKASGYSFTGYYMHWVKQSHGKSLEWIGYISCYNGATSYNQKFKGKATFTVDTSSSTAYMQFNSLTSEDSAVYYCARTYYYGSSYGAMDYWGQGTSVTVSS
VL: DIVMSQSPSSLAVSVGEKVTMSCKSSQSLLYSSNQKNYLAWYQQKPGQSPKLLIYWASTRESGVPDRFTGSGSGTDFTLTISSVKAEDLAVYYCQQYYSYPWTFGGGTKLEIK
notes: also called Ab_22
B1 showed an ELISA signal (human HVEM) of 0.157 and an ELISA signal (cynomolgus monkey HVEM) of 0.165.

B2: Ab_007 (H5S14-6A6A) (antibody, V domains shown)
VH: EVKLVESGGGLVQPGGSLRLSCATSGFTFTDYYMSWVRQTPGKALEWLGFIRNQANAYTTEYSVSVKGRFTISRDNSQSILYLQMNTLRVEDSATYYCARVPDYWGQGTTLTVSS
VL: DIQMTQSPASQSASLGESVTITCLASQTIGTWLAWYQQKPGKSPQLLIYAATSLADGVPSRFSGSGSGTKFSFKISSLQAEDFVSYYCQQLHSTPYTFGGGTKLEIK
notes: also called Ab_7
B2 showed an ELISA signal (human HVEM) of 2.56, an ELISA signal (murine HVEM) of 0.042 and an ELISA signal (cynomolgus monkey HVEM) of 0.739.

B3: Ab_020 (H5S14-22A20A) (antibody, V domains shown)
VH: EVQLQQSGPELVKPGASVKMSCKASGYTFTSYVMHWVKQKPGQGLEWIGYINPYNDGTKYNEKFKGKATLTSDKSSSTAYMELSSLTSEDSAVYYCARGIITTVIEPILYAMDYWGQGTSVTVSS
VL: NIVLTQSPASLAVSLGQRATISCRASESVDSYGNSFMHWYQQKPGQPPKLLIYLASNLESGVPARFSGSGSRTDFTLTIDPVEADDAATYYCQQNNEDPYTFGGGTKLEIK
notes: also called Ab_20
B3 gave an ELISA signal (human HVEM) of 0.049, an ELISA signal (murine HVEM) of 0.043 and an ELISA signal (cynomolgus monkey HVEM) of 0.064.

B4: Ab_021 (H5S14-29A20A) (antibody, V domains shown)
VH: B3 VH with I105V
VL: B3 VL
notes: also called Ab_21
In the case of B4, the ELISA signal (human HVEM) is reported as 0.046, the ELISA signal (murine HVEM) is reported as 0.042 and the ELISA signal (cynomolgus monkey HVEM) is reported as 0.061.

B5: Ab_015 (H5S14-16A13A) (antibody, V domains shown)
VH: EVQLVESGGGLVKPGGSLKLSCAASGFTFSDYYMYWVRQTPEKRLEWVATISDGGSYTYYPDSVKGRFTISRDNAKNNLYLQMSSLKSEDTAMYYCARDGNYYAMDYWGQGTSVTVSS
VL: DVLMTQTPLSLPVSLGDQASISCRSSQSIVHSNGNTYLEWYLQKPGQSPKLLIYKVSNRFSGVPDRFSGSGSGTDFTLKISRVEAEDLGVYYCFQGSHVPWTFGGGTKLEIK
notes: also called Ab_15
For B5, the ELISA signal (human HVEM) was 0.045, the ELISA signal (murine HVEM) was 0.042 and the ELISA signal (cynomolgus monkey HVEM) was 0.058.

B6: Ab_057 (H5S19-5A7A) (antibody, V domains shown)
VH: DVKLVESGGGLVKPGGSLKLSCAASGFTFSSYTMSWVRQTPEKRLEWVATISSGGSYTYYPDSVKGRFTISRDNAKNTLYLQMSSLKSEDTAMYYCTRGDDYGFDYWGQGTTLTVSS
VL: B5 VL
notes: also called Ab_57
B6 was tested, and the ELISA signal (murine HVEM) was 0.045 and the ELISA signal (cynomolgus monkey HVEM) was 1.06.

B7: Ab_003 (H5S14-3A3A) (antibody, V domains shown)
VH: QIQLVQSGPELKKPGETVKISCKASGYTFTNYGVNWVKQAPGKDLKWMGWINTYTGEPTYADDFKGRFAFSLETSASTAYLQINNLKNEDMATYFCTSRSWVLWGQGTLVTVSA
VL: QIVLTQSPAIMSASLGEEITLTCSASSSVSYMQWYQQKSGTSPKLLIYSTSNLASGVPSRFSGSGSGTFYSLTISSVEAEDAADYYCHQWSSYPTFGGGTELEI
notes: also called Ab_3
B7 gave an ELISA signal (murine HVEM) of 0.051 and an ELISA signal (cynomolgus monkey HVEM) of 2.29.

B8: Ab_084 (H5S20-51A40A) (antibody, V domains shown)
VH: QVQLKQSGPGLVQPSQSLSITCTVSGFSLTSYGVHWVRQSPGKGLEWLGVIWRGGSTDYNAAFMSRLSITKDNSKSQVFFKMNSLQADDTAIYYCAKNRGYGEGYYAMDYWGQGTSVTVSS
VL: DIVMTQSQKFMSTSVGDRVSVTCKASQNVGTNVAWYQQKPGQSPKALIYSASYRYSGVPDRFTGSGSGTDFTLTISNVQSEDLAEYFCQQYNSYPLTFGAGTKLELK
notes: also called Ab_84
In the case of B8, the ELISA signal (murine HVEM) is reported as 0.043 and the ELISA signal (cynomolgus monkey HVEM) is reported as 0.061.

B9: Ab_018 (H5S14-21A19A) (antibody, V domains shown)
VH: QVQLQQPGSELVRPGASVKLSCKASGYTFTSYWMHWVKQRPGQGLEWIGNIYPGSGSTNYDEKFKSKATLTVDTSSSTAYMQLSSLTSEDSAVYYCTIYDGYYWGQGTLVTVSA
VL: DIQMTQSPASLSVSVGETVTITCRASENIYSNLAWYQQKQGKSPQLLVYAATNLADGVPSRFSGSGSGTQYSLKINSLQSEDFGSYYCQHFWGTPRTFGGGTKLEIK
notes: the values of that row are written under this molecule; also called Ab_18; Ab_018 and Ab_019
B9 gave an ELISA signal (murine HVEM) of 0.043 and an ELISA signal (cynomolgus monkey HVEM) of 0.059.

B10: Ab_044 (H5S15-30A26A) (antibody, V domains shown)
VH: QVQLQQPGAELVKPGAPVKLSCKASGYTFTSYWMNWVKQRPGRGLEWIGRIDPSDSETHYNQKFKDKATLTVDKSSSTAYIQLSSLTSEDSAVYYCAREYYGNHFDYWGQGTTLTVSS
VL: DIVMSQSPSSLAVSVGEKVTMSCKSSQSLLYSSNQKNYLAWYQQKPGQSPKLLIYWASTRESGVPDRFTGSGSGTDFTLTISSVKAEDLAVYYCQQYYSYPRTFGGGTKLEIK
notes: also called Ab_44
Binder B10 has a Kd (His-tagged human HVEM) of 1.97 nM, a koff (His-tagged human HVEM) of 0.00605 s⁻¹ and a kon (His-tagged human HVEM) of 3.08e+06 M⁻¹ s⁻¹. For the same binder, the ELISA signal (human HVEM) was 2.87.

B11: Ab_023 (H5S14-27A23A) (antibody, V domains shown)
VH: EVKLDETGGGLVQPGRPMKLSCVASGFTFSDYWMNWVRQSPEKGLEWVAQIRNKPYNYETYYSDSVKGRFTISRDDSKSSVYLQMNNLRAEDMGIYYCTWGNYWGQGTTLTVSS
VL: DIKMTQSPSSMYASLGERVTITCKASQDINSYLSWFQQKPGKSPKTLIYRANRLVDGVPSRFSGSGSGQDYSLTISSLEYEDMGIYYCLQYDEFPWTFGGGTKLEIK
notes: also called Ab_23
With B11 the ELISA signal (human HVEM) was 0.045, the ELISA signal (murine HVEM) was 0.042 and the ELISA signal (cynomolgus monkey HVEM) was 0.057.

B12: Ab_056 (H5S19-11A9B) (antibody, V domains shown)
VH: DVQLQESGPGLVNPSQSLSLTCTVTGYSITSDYAWNWIRQFPGNKLEWMGYISYSGNTGYNPSLKSRISITRDTSKNQFFLQLNSVTSEDTATYYCARWGLRIDYWGQGTTLTVSS
VL: B11 VL with R18S, Y80F, W96F, G100S, I106M
notes: also called Ab_56
B12 showed an ELISA signal (murine HVEM) of 0.043 and an ELISA signal (cynomolgus monkey HVEM) of 0.06.

B13: Ab_086 (H5S20-56A25A) (antibody, V domains shown)
VH: EVKLVESGGGLVKPGGSLKLSCAASGFTFSSYGMSWVRQTPEKRLEWVATISGGGSYTFYPDSVKGRFTISRDNAKNNLYLQVSSLRSEDTALYYCIYDGSYWGQGTLVTVSA
VL: not shown
notes: also called Ab_86
B13 was tested, and the ELISA signal (murine HVEM) was 0.044 and the ELISA signal (cynomolgus monkey HVEM) was 0.065.

B14: Ab_002 (H5S14-2A2A) (antibody, V domains shown)
VH: QVQLQQPGAELVKPGTSVKMSCKASGYTFTSYWMHWVKQRPGQGLEWIGDIYPGSDSTNYNEKFKSKATLTVDTSSSTAYMQLSSLTSEDSAVYYCARSGYYGSYLDYWGQGTTLTVSS
VL: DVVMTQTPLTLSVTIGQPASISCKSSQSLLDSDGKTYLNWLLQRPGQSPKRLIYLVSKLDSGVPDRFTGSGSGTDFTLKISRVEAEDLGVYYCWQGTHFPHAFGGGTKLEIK
notes: also called Ab_2
With B14 the ELISA signal (human HVEM) was 2.8, the ELISA signal (murine HVEM) was 0.043 and the ELISA signal (cynomolgus monkey HVEM) was 1.98.

B15: Ab_059 (H5S19-3B10B) (antibody, V domains shown)
VH: QIQLVQSGPELKKPGETVKISCKASGYTFTNFGVNWVKQAPGKGLKWMGWINTYTGEPTYADDFKGRFAFSLETSASTAYLRINNLKNEDTATYFCARSFYKNYAFWGQGTILTVSS
VL: QIVLTQSPAIMSASPGEKVTLTCSASSSVDSSYLFWYQQKPGSSPKLWIYSTSNLASGVPARFSGSGSGTSYSLTISSMEAEDAASYFCHQWSSYPWTFGGGTILEI
notes: also called Ab_59
B15 showed an ELISA signal (human HVEM) of 0.462 and an ELISA signal (murine HVEM) of 0.043.

B16: Ab_016 (H5S14-17A15A) (antibody, V domains shown)
VH: QVQLQQSGAELVRPGTSVKMSCKAAGYTFTNYWIGWVKQRPGHGLEWIGDIYPGGGYTNYNEKFKGKATLTADTSSSTAYMQLSSLTSEDSAIYYCARNGNSLDYWGQGTTLTVSS
VL: SIVMTQTPKFLLVSAGDRVTITCKASQSVSNDVAWYQQKPGQSPKLLIYYESNRYTGVPDRFTGSGYGTDFTFTISTVQAEDLAVYFCQQDYSSPWTFGGGTKLEIK
notes: also called Ab_16
Work on B16 yielded an ELISA signal (human HVEM) of 0.047, an ELISA signal (murine HVEM) of 0.042 and an ELISA signal (cynomolgus monkey HVEM) of 0.061.

B17: Ab_017 (H5S14-18A16A) (antibody, V domains shown)
VH: EVQLVETGGGLVQPKGSLKLSCAASGFTFNTNAMNWVRQAPGKGLEWVARIRSKSNNYATYYADSVKDRFTISRDDSQSMLYLQMNNLKTEDTAMYYCVREGGYGNYPYFDYWGQGTTLTVSS
VL: B16 VL with E51A
notes: also called Ab_17
B17 showed an ELISA signal (human HVEM) of 0.051, an ELISA signal (murine HVEM) of 0.044 and an ELISA signal (cynomolgus monkey HVEM) of 0.06.

B18: Ab_014 (H5S14-15A12A) (antibody, V domains shown)
VH: QVQLKQSGPGLVQPSQSLSITCTVSGFSLTSYGVHWVRQSPGKGLEWLGVIWSGGSTDYNAAFICRLSISKDSSKSQVFFKMNSLQADDTAMYYCARNLGGSWVDYWGQGTSVTVSS
VL: ETTVTQSPASLSVATGEKVTIRCITSTDIDDDMNWYQQKPGEPPKLLISEGNTLRPGVPSRFSSSGYGTDFVFTIENTLSEDVADYYCLQSDNMPYTFGGGTKLEIK
notes: also called Ab_14
In the case of B18, the ELISA signal (human HVEM) is reported as 0.05, the ELISA signal (murine HVEM) is reported as 0.049 and the ELISA signal (cynomolgus monkey HVEM) is reported as 0.064.

B19: Ab_049 (H5S19-25A24A) (antibody, V domains shown)
VH: QVQLQQSGAELMKPGASVKISCKATGYTFSSYWIEWVKQRPGHGLEWIGEILPGSGSTNYNEKFKGKATFTADTSSNTAYMQLSSLTSEDSAVYYCARYPRWGKIDYWGQGTTLTVSS
VL: DIVMTQAAFSNPVTLGTSASISCRSSKSLLHSNGITYLYWYLQKPGQSPQLLIYQMSNLASGVPDRFSSSGSGTDFTLRISRVEAEDVGVYYCAQNLELPYTFGGGTKLEIK
notes: also called Ab_49
B19 gave an ELISA signal (murine HVEM) of 0.044 and an ELISA signal (cynomolgus monkey HVEM) of 0.065.
